Source: publication PMC5483954, “Different specificities of two aldehyde dehydrogenases from Saccharomyces cerevisiae var. boulardii” (Bioscience Reports, 2017)

Tests used:
[1] = target: Saccharomyces cerevisiae var. boulardii mitochondrial aldehyde dehydrogenase Ald4p (Saccharomyces cerevisiae var. boulardii (NCYC 3264)) (UniProt P46367); assay: SEC; Sephacryl S-300, buffer G (50 mM Tris/HCl, 17 mM Tris-base, 150 mM NaCl, pH 7.4), 1 ml/min; 200 ul of 60 uM protein by the methods (legend: Ald4p ~20 uM, Ald6p ~60 uM); mass from calibration with standard proteins
[2] = target: the molecule itself; assay: cross-linking; BS3 (50-800 uM) with 15 uM protein in 100 mM sodium phosphate pH 7.4, 30 C, 35 min; products on SDS/PAGE (10% gel)
[3] = target: the molecule itself; assay: SDS/PAGE of the untreated purified protein (SDS- and heat-resistant oligomers); purified protein without cross-linker on SDS/PAGE (10% gel); band not reduced by additional DTT (2 mM)
[4] = target: the molecule itself; assay: SEC; Sephacryl S-300, buffer G (50 mM Tris/HCl, 17 mM Tris-base, 150 mM NaCl, pH 7.4), 1 ml/min; 200 ul of 60 uM protein by the methods (legend: Ald4p ~20 uM, Ald6p ~60 uM); mass from calibration with standard proteins

stoichiometry N [1]	Molecule	stoichiometry N [2]	stoichiometry N [3]	stoichiometry N [4]
3	Saccharomyces cerevisiae var. boulardii mitochondrial aldehyde dehydrogenase Ald4p (from UniProt P46367 25-519) (enzyme)			
	Saccharomyces cerevisiae var. boulardii cytosolic aldehyde dehydrogenase Ald6p (wild-type) (enzyme, UniProt P54115 1-500, looked up, Ald6p, cytosolic aldehyde dehydrogenase of S. cerevisiae var. boulardii NCYC 3264; differs from the S. cerevisiae S288c protein by valine for isoleucine at position 163; printed mass 54.4 kDa; Removal of the tag is not mentioned; also called cytosolic Ald6p; wild-type Ald6p; source: E. coli Rosetta (DE3), purified (cobalt agarose, dialysis)) MTKLHFDTAEPVKITLPNGLTYEQPTGLFINNKFMKAQDGKTYPVEDPSTENTVCEVSSATTEDVEYAIECADRAFHDTEWATQDPRERGRLLSKLADELESQIDLVSSIEALDNGKTLALARGDVTIAINCLRDAAAYADKVNGRTINTGDGYMNFTTLEPVGVCGQIIPWNFPIMMLAWKIAPALAMGNVCILKPAAVTPLNALYFASLCKKVGIPAGVVNIVPGPGRTVGAALTNDPRIRKLAFTGSTEVGKSVAVDSSESNLKKITLELGGKSAHLVFDDANIKKTLPNLVNGIFKNAGQICSSGSRIYVQEGIYDELLAAFKAYLETEIKVGNPFDKANFQGAITNRQQFDTIMNYIDIGKKEGAKILTGGEKVGDKGYFIRPTVFYDVNEDMRIVKEEIFGPVVTVAKFKTLEEGVEMANSSEFGLGSGIETESLSTGLKVAKMLKAGTVWINTYNDFDSRVPFGGVKQSGYGREMGEEVYHAYTEVKAVRIKL	2	~4	4
